Experimental data: US20090318349A1 (Novo Nordisk, published 2009)
Changes are numbered by the printed parent chain.

B1: GlyPro-mTGase from S. ladakanum (enzyme)
chain: GPDSDERVTPPAEPLDRMPDPYRPSYGRAETIVNNYIRKWQQVYSHRDGRKQQMTEEQREWLSYGCVGVTWVNSGQYPTNRLAFAFFDEDKYKNELKNGRPRSGETRAEFEGRVAKDSFDEAKGFQRARDVASVMNKALENAHDEGAYLDNLKKELANGNDALRNEDARSPFYSALRNTPSFKDRNGGNHDPSKMKAVIYSKHFWSGQDRSGSSDKRKYGDPEAFRPDRGTGLVDMSRDRNIPRSPTSPGESFVNFDYGWFGAQTEADADKTVWTHGNHYHAPNGSLGAMHVYESKFRNWSDGYSDFDRGAYVVTFVPKSWNTAPDKVKQGWP
B2: GlyPro-mTGase_Y75A from S. ladakanum (enzyme)
chain: B1 chain with Y77A
B3: GlyPro-mTGase_Y62H_Y75F from S. ladakanum (enzyme)
chain: B1 chain with Y64H, Y77F, K329T
B4: GlyPro-mTGase_Y75F from S. ladakanum (enzyme)
chain: B1 chain with Y77F
B5: GlyPro-mTGase_Y75N from S. ladakanum (enzyme)
chain: B1 chain with Y77N
B6: GlyPro-mTGase_Y62H_Y75N from S. ladakanum (enzyme)
chain: B1 chain with Y64H, Y77N
B7: AlaPro-mTGase from S. mobaraensis (enzyme)
chain: APDSDDRVTPPAEPLDRMPDPYRPSYGRAETVVNNYIRKWQQVYSHRDGRKQQMTEEQREWLSYGCVGVTWVNSGQYPTNRLAFASFDEDRFKNELKNGRPRSGETRAEFEGRVAKESFDEEKGFQRAREVASVMNRALENAHDESAYLDNLKKELANGNDALRNEDARSPFYSALRNTPSFKERNGGNHDPSRMKAVIYSKHFWSGQDRSSSADKRKYGDPDAFRPAPGTGLVDMSRDRNIPRSPTSPGEGFVNFDYGWFGAQTEADADKTVWTHGNHYHAPNGSLGAMHVYESKFRNWSEGYSDFDRGAYVITFIPKSWNTAPDKVKQGWP

The binders below were run against wild type human growth hormone (human, UniProt P01241 27-217) (assay: cell-based or functional assay).
wild type human growth hormone, sequence (P01241 27-217): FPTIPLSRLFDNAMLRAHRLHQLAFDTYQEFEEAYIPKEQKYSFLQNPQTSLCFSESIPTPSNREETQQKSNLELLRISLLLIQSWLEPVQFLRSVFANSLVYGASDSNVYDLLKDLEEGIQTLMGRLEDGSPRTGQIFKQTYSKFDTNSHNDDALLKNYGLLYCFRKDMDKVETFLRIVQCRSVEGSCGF

RS (relative selectivity)	Selectivity (Q141/Q40), CE	Binder
1.8	10.3	B1
3	17.3	B2
6.4	36.2	B3
5.1	29.1	B4
3.4	19.3	B5
4.6	26.3	B6
1	5.7	B7
